Source: paper PMC7613515, “Reading and erasing of the phosphonium analogue of trimethyllysine by epigenetic proteins” (Communications Chemistry, 2022)
Read-outs that look alike come from different tables or passages of the source. Square brackets hold non-standard residues; d marks the D form. Ends that are not written are not given here. Lys(Me3) = C[N+](C)(C)CCCC[C@H](N)C(=O)O

Experiments:
[1] = target: T1, KDM5APHD3 (JARID1A-PHD3, residues M1489–V1641) (Homo sapiens, UniProt P29375); test: ITC, association of histone H3 peptides with KDM5APHD3; assay type: binding; conditions: 25 °C, H3 1-10 peptide (350–600 µM) into reader (25–40 µM), Tris (50 mM), NaCl (20 mM), pH 7.5, from 3 to 5 experiments
T1 construct: KDM5APHD3 (JARID1A-PHD3, residues M1489–V1641); made in house; host or cells: E. coli
T1 sequence (P29375 1489-1641): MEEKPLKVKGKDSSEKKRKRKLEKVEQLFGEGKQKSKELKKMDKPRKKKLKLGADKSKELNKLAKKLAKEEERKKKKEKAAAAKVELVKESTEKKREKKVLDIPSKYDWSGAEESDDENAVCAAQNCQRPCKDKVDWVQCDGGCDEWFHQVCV
From the text: (§1) We investigated the thermodynamics of association of the H3KP4me3 peptide with five representative human reader domains containing either a PHD zinc finger or TTD, i.e. KDM5APHD3 (JARID1A-PHD3, residues M1489–V1641)[10], TAF3PHD (R857–K924)[22], BPTFPHD (L2583–N2751)[23], SGF29TTD (R115–K293)[24] and KDM4ATTD (JMJD2A, Q897-P1011)[25], selected on the basis of their preference for binding Ν^ε-trimethyllysine over other (non)methylation marks (Kme0 < Kme1 < Kme2 < Kme3), and their domain and aromatic cage diversity. The recombinant readers were produced in E. coli following reported procedures. Isothermal titration calorimetric (ITC) analyses were used to determine the dissociation constant (Kd), the Gibbs free energy of binding (ΔG°), the enthalpy of binding (ΔH°), and the entropy of binding (ΔS°). […] (Table 1, Fig. 2, Supplementary Fig. 1).
(§2) The following purified reader domains: TAF3PHD (R857-K924), KDM5APHD3 (JARID1A, M1489-V1641), BPTFPHD (L2583-N2751), KDM4ATTD (JMJD2A, Q897-P1011) and SGF29TTD (R115-K293) were prepared as reported[10],[22]–[26]. The histone lysine demethylase were produced and purified to high purity via reported procedures KDM3A (JMJD1A, T515-S1317)[41], KDM4AJmjC[39] (JMJD2A, M1-L359), KDM4EJmjC (JMJD2E, M1–Q337)[34] and KDM7B[40] (PHF8, M37-N483 [NP_001171]). KDM5DJmjC was produced using an N-terminal hexa-His tagged KDM4D (KDM4DM1-L358) DNA construct, transformed into BL21(DE3) competent cells for recombinant protein production. Colonies were used to inoculate of LB media (50 mL) containing kanamycin (50 µg·mL^−1) and chloramphenicol (34 µg·mL^−1), which was placed in a 37 °C shaker overnight. The starter culture (10 mL) was used to inoculate TB media (6 × 1 L) containing kanamycin (50 µg·mL^−1) in 2 L baffled shaker flasks. After reaching an of OD600 of ~0.8, the temperature was reduced to 18 °C; at OD600 ~0.9 the cells were induced by the IPTG (0.5 mM) addition. After shaking overnight, the culture was centrifuged (5000 rpm, 10 mins), the media was decanted, and the cell pellet was suspended in Lysis Buffer [HEPES (50 mM), NaCl (500 mM), imidazole (20 mM), glycerol (5%) and TCEP (0.5 mM) in water (pH 7.4)]. The suspension was lysed by passaging through a high-pressure cell breaker (Avestin – EmulsiFlex-C5) for three rounds. The lysate was cleared by centrifugation (60 minutes, 36,000 × g, 4 °C), then loaded onto a Ni NTA gravity column. […]
(§3) ITC studies followed a reported procedure. […] Histone peptide titrations were performed with the same reader batches. Solutions of the reader in buffer (25–40 µM) and of the histone H3 peptide (350–600 µM) in buffer were prepared. […] Heats of dilution for histone peptides determined in control experiments were subtracted from the titration binding data. […]

[2] = target: T2, TAF3PHD (R857–K924) (Mus musculus, UniProt Q5HZG4); test: ITC, association of histone H3 peptides with TAF3PHD; assay type: binding, human; conditions: 25 °C, H3 1-10 peptide (350–600 µM) into reader (25–40 µM), Tris (50 mM), pH 7.5, from 3 to 5 experiments
T2 construct: TAF3PHD (R857–K924); made in house; host or cells: E. coli
T2 sequence (Q5HZG4 857-924 limits assumed): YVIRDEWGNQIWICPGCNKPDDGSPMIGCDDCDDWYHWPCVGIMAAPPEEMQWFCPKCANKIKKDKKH
From the text: as §1, §2, §3

[3] = target: T3, SGF29TTD (R115–K293) (Homo sapiens, UniProt Q96ES7); test: ITC, association of histone H3 peptides with SGF29TTD; assay type: binding; conditions: 25 °C, H3 1-10 peptide (350–600 µM) into reader (25–40 µM), pH 7.5, from 3 to 5 experiments
T3 construct: SGF29TTD (R115–K293); made in house; host or cells: E. coli
T3 sequence (Q96ES7 115-293): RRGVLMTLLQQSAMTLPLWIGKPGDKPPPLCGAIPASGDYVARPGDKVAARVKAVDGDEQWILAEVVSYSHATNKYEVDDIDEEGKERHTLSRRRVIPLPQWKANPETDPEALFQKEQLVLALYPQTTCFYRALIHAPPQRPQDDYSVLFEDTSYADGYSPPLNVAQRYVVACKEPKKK
From the text: as §1
(§4) The following purified reader domains: TAF3PHD (R857-K924), KDM5APHD3 (JARID1A, M1489-V1641), BPTFPHD (L2583-N2751), KDM4ATTD (JMJD2A, Q897-P1011) and SGF29TTD (R115-K293) were prepared as reported[10],[22]–[26]. The histone lysine demethylase were produced and purified to high purity via reported procedures KDM3A (JMJD1A, T515-S1317)[41], KDM4AJmjC[39] (JMJD2A, M1-L359), KDM4EJmjC (JMJD2E, M1–Q337)[34] and KDM7B[40] (PHF8, M37-N483 [NP_001171]). KDM5DJmjC was produced using an N-terminal hexa-His tagged KDM4D (KDM4DM1-L358) DNA construct, transformed into BL21(DE3) competent cells for recombinant protein production. Colonies were used to inoculate of LB media (50 mL) containing kanamycin (50 µg·mL^−1) and chloramphenicol (34 µg·mL^−1), which was placed in a 37 °C shaker overnight. The starter culture (10 mL) was used to inoculate TB media (6 × 1 L) containing kanamycin (50 µg·mL^−1) in 2 L baffled shaker flasks. After reaching an of OD600 of ~0.8, the temperature was reduced to 18 °C; at OD600 ~0.9 the cells were induced by the IPTG (0.5 mM) addition. After shaking overnight, the culture was centrifuged (5000 rpm, 10 mins), the media was decanted, and the cell pellet was suspended in Lysis Buffer [HEPES (50 mM), NaCl (500 mM), imidazole (20 mM), glycerol (5%) and TCEP (0.5 mM) in water (pH 7.4)]. The suspension was lysed by passaging through a high-pressure cell breaker (Avestin – EmulsiFlex-C5) for three rounds. The lysate was cleared by centrifugation (60 minutes, 36,000 × g, 4 °C), then loaded onto a Ni NTA gravity column. After extensive rinsing of the Ni-NTA gravity column with lysis buffer, the His-tagged protein was eluted in lysis buffer containing 300 mM imidazole. The eluted protein was concentrated and subjected to gel filtration chromatography using an AKTA Xpress system, an S200 16/600 gel filtration column, and GF buffer [HEPES (50 mM), NaCl (150 mM), glycerol (5%) and TCEP (0.5 mM) in water (pH 7.4)]. The protein identity was verified by LC-MS (ESI-TOF) observing a mass of 43759.7 Da, in accord with the predicted mass of 43751.6 Da.
ITC studies followed a reported procedure. The buffer used corresponded to that used in the final protein purification step. […] Histone peptide titrations were performed with the same reader batches. Solutions of the reader in buffer (25–40 µM) and of the histone H3 peptide (350–600 µM) in buffer were prepared. […] Heats of dilution for histone peptides determined in control experiments were subtracted from the titration binding data. […]

[4] = target: T4, KDM4ATTD (JMJD2A, Q897-P1011) (Homo sapiens, UniProt O75164); test: ITC, association of histone H3 peptides with KDM4ATTD; assay type: binding; conditions: 25 °C, H3 1-10 peptide (350–600 µM) into reader (25–40 µM), Tris (50 mM), pH 7.5, from 3 to 5 experiments
T4 construct: KDM4ATTD (JMJD2A, Q897-P1011); made in house; host or cells: E. coli
T4 sequence (O75164 897-1011): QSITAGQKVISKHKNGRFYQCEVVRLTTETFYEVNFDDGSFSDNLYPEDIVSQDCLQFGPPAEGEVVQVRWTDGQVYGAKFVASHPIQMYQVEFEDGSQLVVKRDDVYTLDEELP
From the text: as §1, §4
ITC studies followed a reported procedure. The buffer used corresponded to that used in the final protein purification step. Briefly, TAF3PHD and KDM4ATTD: [Tris (50 mM) in water (pH 7.5)]; KDM5APHD3 and BTPFPHD: [Tris (50 mM), NaCl (20 mM) in water (pH 7.5)]; [Tris (25 mM), NaCl (50 mM), 1,4-dithiothreitol (1.0 mM) in water (pH 7.5)]. Experiments were conducted using ITC200 automated (GE Healthcare Life Sciences, USA) instrument at 25 °C. Histone peptide titrations were performed with the same reader batches. Solutions of the reader in buffer (25–40 µM) and of the histone H3 peptide (350–600 µM) in buffer were prepared. The prepared solutions were plated into a 96-well plate and inserted into the instrument for analysis. Experiments were performed according to manufacturer’s default settings: Plate pre-rinse syringe clean. A total of 19 injections were performed; each experiment was repeated 3–5 times. Heats of dilution for histone peptides determined in control experiments were subtracted from the titration binding data. […]

[5] = cited from earlier work
From the text: Some JmjC KDMs can also catalyse N-methyl arginine demethylation and with appropriately sized N^ε-substitutions some can catalyse forma ...

[6] = tested on: KDM4E; conditions: reported, shorter H3_7-14K9me3 substrate; cited from earlier work
From the text: Reactions were monitored using MALDI-TOF mass spectrometry (Fig. 5b–d). […] Some JmjC KDMs can also catalyse N-methyl arginine demethylation and with appropriately sized N^ε-substitutions some can catalyse forma ...

[7] = target: T5, BPTFPHD (L2583–N2751) (Homo sapiens, UniProt Q12830); conditions: reported, ITC, H3 1-10, cited from earlier work
T5 construct: BPTFPHD (L2583–N2751); made in house; host or cells: E. coli

[8] = target: T1, KDM5APHD3 (JARID1A-PHD3, residues M1489–V1641); conditions: reported, ITC, H3 1-10, cited from earlier work
From the text: page 30: Supplementary Table 5 Overview of reported ITC binding values of chromatin binding modules with H3 peptides (K d in µM) with various lysine modification. […] N.D. not determined; N.M: not measured. Modification KDM5A PHD3 TAF3PHD BPTFPHD SGF29TT ...

[9] = target: T4, KDM4ATTD (JMJD2A, Q897-P1011); conditions: reported, ITC, H3 1-10, cited from earlier work
From the text: (§5) N.D. not determined; N.M: not measured. Modification KDM5A PHD3 TAF3PHD BPTFPHD SGF29TT ...

[10] = target: T3, SGF29TTD (R115–K293); conditions: reported, ITC, H3 1-10, cited from earlier work
From the text: as §5

[11] = target: T2, TAF3PHD (R857–K924); conditions: reported, ITC, H3 1-10, cited from earlier work
From the text: as §5

Molecule: C[C@H](N)C(=O)N[C@@H](CCCNC(=N)N)C(=O)N[C@H](C(=O)N[C@@H](CCCC[N+](C)(C)C)C(=O)N[C@@H](CCC(N)=O)C(=O)N[C@H](C(=O)N[C@@H](C)C(=O)N[C@@H](CCCNC(=N)N)C(=O)N[C@@H](CCCCN)C(=O)N[C@@H](CO)C(N)=O)[C@@H](C)O)[C@@H](C)O [H3K4me3, reference compound]
- Kd [1]: 520 nM
- Kd [2]: 110 nM
- Kd [3]: 3200 nM
- Kd [4]: 3500 nM

Molecule: C[N+](C)(C)C [^+Nme4, reference compound]
- volume [5]: 105 Å^3

Molecule: C[P+](C)(C)C.[I-] [^+Pme4, reference compound]
- volume [5]: 115 Å^3

Molecule: H3_7-14K9me3: shorter H3_7-14K9me3 substrate (AR[Lys(Me3)]STGGK; UniProt P68431 8-15, looked up, fragment)
- Km [6]: 21.3 µM
- kcat [6]: 0.0767 s⁻¹

Molecule: K4Cme3: H3 1-10 peptide with K4Cme3 modification, Hintzen et al.
- Kd ([7]; ref Hintzen et al. (SI ref 11)): 3800 nM

Molecule: K4Cme3: H3 1-10 peptide with K4Cme3 modification, Hintzen et al. (ARTCQTARKS; Cys4 S-alkylated with 2-(trimethylammonio)ethyl = trimethylthialysine, a cysteine-derived trimethyllysine analogue (identity inferred from the cited Hintzen et al. work))
- Kd ([8]; ref Hintzen et al. (SI ref 11)): 150 nM
- Kd ([9]; ref Hintzen et al. (SI ref 11)): 3100 nM
- Kd ([10]; ref Hintzen et al. (SI ref 11)): 6100 nM
- Kd ([11]; ref Hintzen et al. (SI ref 11)): 42 nM

Molecule: K4G: K4me3 in H3K4me3 substituted for glycine (ARTGQTARKS)
- Kd ([8]; ref Kamps et al. (SI ref 9)): 88000 nM
- Kd ([11]; ref Kamps et al. (SI ref 9)): 36000 nM

Molecule: L-K4me3: H3 1-10 peptide with L-K4me3 modification, Belle et al.
- Kd ([8]; ref Belle et al. (SI ref 8)): 110 nM
- Kd ([9]; ref Belle et al. (SI ref 8)): 1100 nM
- Kd ([10]; ref Belle et al. (SI ref 8)): 1700 nM
- Kd ([11]; ref Belle et al. (SI ref 8)): 82 nM
- Kd ([7]; ref Belle et al. (SI ref 8)): 440 nM
